In the DeepSol protein solubility set:

Assay: soluble on expression in E. coli; label from the status in PepcDB or PDB records
With “MTRPVIVPFFISHQGCPHRCVFCDQERIAGRAGRLPSAAEIHSAVKTFGRGRPVEAAFYGGTFTSLPRNEQERLLAALQPLRHDGSVRSVRLSTRPDALDAETAGFLKSMGVASVELGVQSMDDQVLDVSGRGHSAADTVRAFDVLRSEGIAVGAQLMPGLPGDSRERSLDSLTRILDLKPVSLRIYPTLVVAGTRLAEFWAEGSYTPLTLADAVPLCADMLLACKRAGVPVIRLGLQPTDILERSVLAGPWHPALRQLVEGELWYRLLERLTTGLAAGTVVSVACAPARISDVVGQRRVNLSRLLERRGIVVTGVAGCPTAAPDTLTLTHAGGTVAGSLTD” the “soluble on expression in E. coli” value was “not soluble”.
In the case of “MSLTQKRLGLIMNGITGRMGLNQHLIRSVVAIRAQGGVPLSDGTKVQLDPILIGRNADKVEGLAKQYGIERWGTDLDAALADPGNEIFFDAATTQMRPILLEKAIRAGKHVYCEKPIATNLPEAVRICRLAEEKGVKNGVVQDKLFLPGLQKLKLLRDSGFFGRMISVRGEFGYWVFEGDWGQPAQRPSWNYRSQEGGGMILDMVCHWRYVLDNLFGEVKSVSCLGATHIPSRVDERGQPYEATADDAAYATFELQDGVIAHINMSWCTRVYRDDLVTFQVDGTLGSAVAGLSDCVFQSRVGTPRPVWNPDQKQTMDFYNHWQPVPDTAVFDNGFKVQWEMFIRHVVEDAPYRFTLREGAKGVQLVECALQSWKERRWIDVPTLEASERAVLQAAEEGHHHHHH”, the “soluble on expression in E. coli” value is reported as “soluble”.
In the case of “MKFKIHSDITYQVMSPTTFIFNVHALRTESQHILDESLIVTPPIEIEEFSYNSGTSRFVRLKATENTTFSMSYTATVDTQYKVIDQRQELETVPVVDLDGDIIPFLFPSRYCQSDKLQKLAYKEFGKIENVYSKVLAITDWIYNNVEYISGSTNSQTSAFDTITERAGVCRDFAHLGIALCRALSIPARYFTGYAFKLNPPDFHACFEAYIGGNWIIFDATRLVPLNGLVKIATGRDAADAAVASIFGNASSTNMHVECASLDTDFTPFWYDKNSLKGLSFQ”, the “soluble on expression in E. coli” value is reported as “soluble”.
For “SERLTSPPRLMIVSDLDETMVDHHKDPENLALLRFNSLWEDAYRHDSLLVFSTGRAQTMYKKLRKEKPLLTPDVIITSVGTEIAYGNSMVPDDNWVEILNKKWDRGIVQEETSKFPELTLQGETEQRPHKLSFNIDKSKVKAVTKELSPRLEKRGVDVKFIFSGGNAFDVLAKGGGKGQALAYLLKKLKTEGKLPINTLACGDSGNDTELFTIPNVYGVMVSNAQEELLEWYAENAKDNANIIHASERCAGGITQAIGHFKLGPNLSPRDVSDFLECKADNVNPGHEVVKFFLFYERWRRGEVENCTTYTSSLKASCHPSGVFVHPSGAEKSLRDTIDELGKYYGDKKGKKFRVWTDQVLATDTTPGTWIVKLDKWEQTGDERKCCTTTVKFTSKEGEGFVWEHVQQIWSEETEIKDDSNWII”, the “soluble on expression in E. coli” value was “not soluble”.
For “MPSEKEDDVMKNVTFAEGKKFGDWKIGKTIDEGGFGKVYIATSISDPKKVAALKAESNEIEGGSAIKLEAMILNKLNANGPVPHIPVVHLCAKRKLYCYMVMTLLGRNLRKLKSTNLVVNNGFSRGTWSRIGIQCLYALKYVHDNGFIHRDVKPQNFLLGNETDSERARIVHILDFGLARPFAVFHARENKWIARRARGTAEFRGTLRYTSPNVHLRKEQGRVDDVWSLLYVIIELNGGKALPWQTDSQRERVEQMKLNLPAKVVMSNMPACMDKVMPHLASLDYYQRPDYHMIFKCFWQVMENEKITPSSKYDWEKDEPDKSVPPASWENPAGPFFQSDPLGINAPPTPAEAALTEKSGKKHGKK”, the “soluble on expression in E. coli” value was “soluble”.
For “MHKEKHCAVVIDCWMEKIGEVNFENKPSKFPAFVEEIRKICGTKDFVFGLEDTRGFGRNLASYLTGRKFEVKHVNPVYTSAIRLSNPIIYKDDSYDAYCVARVLRDMVDTLQDAKHEDIYWAIRQLVKRREIIVKYNVMNKNQLHSQLSYGYPSYKKFFSQIDGKSALCFWENYPSPEHIWCTTPEQIYETIKAVHQAFKIERVHAIIDMIKKDGNTQKGYQEERDTIVRNIVKDIKNNQELLKDIEKQLRKLLPQTGYKLQTMPGIDLITEAKIVSEIGDINRFPNSDKLARFMGLAPVHFSSAGKGKEERCRNGNRELNAIFHFLAIQMVAVSPSGKPRHPVFREYFEQKVKEGKNKPQALICISRTLVRLIYGMMKTKTEYRPYEKKEEEGNN”, the “soluble on expression in E. coli” value was “soluble”.
With “MAHHHHHHMWRRGVAAVPLPLWQGKLLQLVHHRALSTDTTGDEATAWSRAMEAKYGTGTYKLFRPLYKDLSDEMRLEAYTKPPAPMQGWSVHHDEAVNLAIFSHKGDSRSRTARVVAYSPITVENPESLNPLLYFMDWYPINVLMERNGVVVHFSIASTEGGMHMRNVRVYKAQDELSPNDPEKQDLPNRDSECERLMSTTDDAAWVRHNLYYDGPCLWHLELDMLNELYDVMQDHGVTLDWVRWVAEWVHYLEHVSYVRWALGVLQELIPVDERGPEDDFLTFEEKEALATPPEEWLEAHYI” the “soluble on expression in E. coli” value was “not soluble”.
For “MRMNLTNHFLVAMPGMKDPYFQNSVIYVCEHNEEGAMGLMINAPVDITVGNMLKQVDVQPVHPRLFEASLDRPVYNGGPISEDRGFILHKPKDYYESSIQMTDDLAVTTSRDILSVLGTEAEPSDYLVALGYSGWSAGQLENELVENSWLTIEATPEIIFDTPITERWKKAVEKLGIDPSQLSADAGHALEHHHHHH”, the “soluble on expression in E. coli” value was “soluble”.
For “SDSAWTALDMETQTMLKTAIKDPKTVDLEKLSNAVVEHSLKDLSFCKDAGRMCYAVVQAEAQKTASSVFRRNLLNRLQQEFIAREETRKRSMQEWVCVVTFICSIFDYIKVNNSPIAALVDPVYDCLFRLAQPDSLMNEEEVDCLVVQLHRVGEQLEQTNSERMNQLFYLLRDGFLLQEDLSSMTRLLLLEILEFRASGWTLSETAHKYYYSEVAD”, the “soluble on expression in E. coli” value was “soluble”.
With “MAHHHHHHMSAWASGDTLERLKLKPETAPSNRGNGRQASADATSSTSVKATSNADAEGVVQASMAATIASTNKNKNKKALEGKVSKKNAPKNTAHTADEKQPPTQEQTASSSGGAKRNEPKKGASDSRDCPVTLPSDVAELVVNAFTFIGTVQALRAGTSTDGRESMLSAAVRAPEFVPQRRDYAVQNATSGSDTQHVGELASNAYPMHHHHHHHHYQLHQQQKQPQHTPLVSTSRVQQQEQPPWAPYYNDQQHRQHHSVHHHRHQQQQQQLAYGQPDCTTGKMYHDAYSPVDYDMNLCAAPPYSRMYSGYPGMCMGANMLPNMSGYGGLALRRPLPYFPQQQNQVTAYKSTHVGQQQPWMRNDSGPSNARKGSGAGQWYPGGQAGFNDALSVWNQQRNAGNWARQAEQSGPAGAHTSSAP” the “soluble on expression in E. coli” value was “not soluble”.
With “MGHHHHHHSHMSFSKESSRLFGFVAGIKFPKMIQKVINENYVKYFNINMSEFKAPCEYESLNALFTRTLQIPRKFEEGFISPSDGKILECGSTFLANEEHFAFSIKGHAYSVEELLKDSFEKDELKNGLDYVNIYLSPKDYHRYHSPCDMQILSATYTSGVLYSVNEKHLERISNLYVKNERVSLKCQNEKGIFWLVFVGAQNVGKMRFNFDASIQTNAKISHNFTRKYENLNFKKGEELGNFELGSTIVLISQKGLLTFNLKVGQGIKFGEKIAD” the “soluble on expression in E. coli” value was “soluble”.
In the case of “LQFAYKDPEKNWNRNSVKGLVASLINVKDNSTATALEVVAGERLYNVVVDTEVTAKKLLEKGELKRRYTIIPLNKISARCIAPETLRVAQNLVGPDNVHVALSLVDYKPELQKGMEFVFGTTFVCNNMDNAKKVAFDKRIMTRTVTLGGDVFDPHGTLSGG”, the “soluble on expression in E. coli” value is reported as “soluble”.
In the case of “AEKANQVSNIKTQLAMEYMRGQDYRQATASIEDALKSDPKNELAWLVRAEIYQYLKVNDKAQESFRQALSIKPDSAEINNNYGWFLCGRLNRPAESMAYFDKALADPTYPTPYIANLNKGICSAKQGQFGLAEAYLKRSLAAQPQFPPAFKELARTKMLAGQLGDADYYFKKYQSRVEVLQADDLLLGWKIAKALGNAQAAYEYEAQLQANFPYSEELQTVLTGQ”, the “soluble on expression in E. coli” value is reported as “soluble”.
For “MAKIPVLEIFGPTIQGEGRVIGRKTMFVRTAGCDYRCSWCDSAFTWDGSAKEDIKLMTAEEIYDALLEIGGHRFNHVTISGGNPALIKGIQELVDLFEDKHIYTALETQGSRFQSWMTQIDDLTISPKPPSSGMKTNLEILDSVINQCTFHSLNLKVVIFDDADYDFAKLIHHRYPNIPFYLQVGNPYLDDNVDQHTDKLLERYEQLVDRVMQSSDMNHVYVLPQLHTLLWSNKKGV”, the “soluble on expression in E. coli” value was “not soluble”.
For “MPNRPDLCLGVMSIELRHLRAAVAIAEAGSFTAAANALHITQPALTRTVQQLETSLGVRLFDRTSRALALTEDGAGFVEKVRVILGDLDSAVALYTNRSLVLGFSWLLPDPWAQQVIDDVEKNSRATVVPRRYDDPVAALNNATVDAAVVRRDVPGDEFVQHPLFEEQRIAAVSTASPLATRESIDWAEFGTLPLVINTLSGTTSEDLWPNHDGPVVTCSNFDDWLELIAADRGVGTVPEVARRRVTHRNVQFIPLVGAPPAVVRFVYRRNRVTPLLRVLRDAAIRHSPPPGSVTVGQHD”, the “soluble on expression in E. coli” value was “not soluble”.
For “MGSDKIHHHHHHMRLVLEEPFKRLWNGRDPFEAVEALQGKVYRELEGRRTLRTEVDGRGYFVKIHRGIGWGEIAKNLLTAKLPVLGARQEWQAIRRLHEAGVATMTAVAYGERGSDPARQHSFIVTEELAPTVDLEVFSQDWRERPPPPRLKRALVEAVARMVGDMHRAGVNHRDCYICHFLLHTDKPVSADDFRLSVIDLHRAQTRDATPKRWRNKDLAALYFSALDIGLTRRDKLRFLRTYFRRPLREILRDEAGLLAWMERKAEKLYERKQRYGDLL”, the “soluble on expression in E. coli” value was “not soluble”.
For “MSYPIKSTLIILRGNSASGKTTIAKQLQEHFGQGTLLVSQDVVRRDMLRVHDTIGNLSHDLLFEITKYGKGKCEFVILEGILNSHRYGDMLKELIHLFEGNAYTYYFDLSLKETIRRHNTREKRHEFGEDSLQKWYNPHDTIEVTRETIFTDNLTQKDIFDAILNDVMVRKLEHHHHHH”, the “soluble on expression in E. coli” value was “soluble”.
For “MVEIIDTTFRDAHQSLIATRMSTKDMLPIAEKMDKIGFYSMEVWGGATFDVSLRFLREDPWERLKLLREHIRKTKLQMLLRGQNLVGYRHYPDDVVEKFVELAYKNGIDIFRVFDALNDVRNMKTAIKKAKEIGAEVQGAICYTTGPIFTIDYYLQKVDELIELDVDYITIKDMAGLADPQTAYELVKEIKERYGIKVNFHTHATSGLAVATYLKAVEAGVDYIDTSIYPLAGGTAQPAVQTMYYALPKGKRPKLNIKLIHEISKYLTNLLEKKYDHLLTKKAIHGDPNVLIHQIPGGMYSNLIKQLSELKALDKLEEVLEEVPRVREDLGYPPLVTPTSQIVGVQAVLNVLFGRYKQVTKETKDYVRGLYGRPPGKIKEEIKKLILGDEEPINVRPADLLEPMLEKAKKELKEKGYLEKEEDVVTYCLFPQVALEFFELRRQGRLRPVEEKPKGKPIKIYINGKEFEVFVEGIEFEPPKPKPQVQAIPSQPPKREVVAPSGSVVSAPMPGKVLRVLVRVGDRVRVGQGLLVLEAMKMENEIPSPRDGVVKRILVKEGEAVDTGQPLIELE”, the “soluble on expression in E. coli” value was “soluble”.
With “MDNNLEIKDLEKIAKKVRYNIVKMVGLAKSGHPGGSLSATDIIVALYFKLMNYSPDNPYKKDRDRFVLSKGHAAPALYAVLSELGIIEEEELWKLRRLEGKLQGHPSMDTPGVEICTGSLGQGFSAAVGMALGCRLDKLNNYVYVLLGDGECQEGIVWEAAMAAAHYKLDNLIAFIDRNKLQIDGCTEDVMSLGDIKAKFEAFGWDVFEIDGHNFEEIINTVEKAKSMKNGKPKMIIAYTVKGKGVSFMENNVAFHGKAPNEEQLKQALEELSE” the “soluble on expression in E. coli” value was “soluble”.
With “MKIVTTVQEMQHITKELRASGKSIGFVPTMGYLHEGHATLLRKAREENEIVVLSVFVNPLQFGPNEDLDRYPRDIDRDENVAKENGVDYLFYPSVEEMYPAEQTTTVEVVKRTDVLCGKQRPGHFAGVATVLMKLFNITLPTRAYFGMKDAQQVAVIEGFVADFNIPVIIVPVDIVREEDGLAKSSRNVYLSQKERKEAPHLYRSLCMAKERIEAGERNAEIITTLVKEYIETYTKGTVDYADLYAYPSLQVVDQIEGRIILAIAVKFENVRLIDNITLTVK” the “soluble on expression in E. coli” value was “not soluble”.
